Tests used:
GSK-3beta = GSK-3beta (Homo sapiens, UniProt P49841); conditions: cited from earlier work
CDK-5 = CDK-5 (Homo sapiens, UniProt Q00535); conditions: cited from earlier work
[1] = system: BDTK promoter (CpG1.2-luciferase) in HEK 293 cells; test: CpG1.2-luciferase BDTK promoter reporter assay in HEK293 cells; type: cell-based, human; conditions: A-beta 1-42 0-30 μg/ml, 24 hours
Method: A luciferase assay was used to determine promoter activity. To conduct this assay, 1.2 kb and 0.6 kb promoter sequence were inserted into pGL3-control vector (Promega, named as CpG1.2 and CpG0.6, respectively). The luciferase constructs were co-transfected with reference reporter gene (thymidine kinase promoter TK-RL plasmid, Promega) into PC12 and HEK293 cells using lipofection method (GenePorter, Gene Therapy Systems, Inc.). At 48 hours after DNA transfection, each luciferase activity was measured using Dua1-luciferase kit (Promega). […] CpG1.2-luciferase vector was tested for its promoter activity by increasing dose of extracellular beta-amyloid peptide (A-beta) 1-42 (0-30 μg/ml) for 24 hours. CpG1.2 luciferase activities (PC12-CpG or HEK-CpG) are 8- to 10-fold higher than control activities (PC12-control or HEK293-control) without beta-amyloid stimulation.

BDTK [2] = molecular target: T1, BDTK (Homo sapiens, UniProt Q5TCY1); test: BDTK-mediated tau phosphorylation in vitro; type: biochemical
T1 construct: made in house
T1 sequence (Q5TCY1 38-319): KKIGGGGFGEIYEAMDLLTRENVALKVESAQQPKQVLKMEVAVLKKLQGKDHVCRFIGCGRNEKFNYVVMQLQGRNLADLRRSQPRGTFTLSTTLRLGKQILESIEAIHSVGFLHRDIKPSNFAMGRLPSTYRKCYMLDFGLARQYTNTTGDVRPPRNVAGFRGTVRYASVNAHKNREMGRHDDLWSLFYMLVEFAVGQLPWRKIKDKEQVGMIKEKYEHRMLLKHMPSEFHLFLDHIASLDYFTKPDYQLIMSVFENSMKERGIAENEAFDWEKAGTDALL

BDTK [3] = molecular target: T1, BDTK; test: BDTK phosphorylation (autophosphorylation) in vitro; type: biochemical
Method: Purified recombinant human tau (Calbiochem) was phosphorylated by purified BDTK(38-319) and BDTK(52-319) in vitro. Briefly, 1 μg of tau protein and 1 μg of BDTK mutants were incubated in buffer A (50 mM Tris-Cl, pH 7.5, 5mM Mg acetate, 1 mM EDTA, 1 mM DTT, 0.1 mM ATP, 2 μCi [γ-^32P]ATP) or buffer B (100 mM Mes-Na, pH 6.5, 5 mM Mg acetate, 1 mM EGTA, 1 mM DTT, 0.2 mM ATP, and 2 μCi[γ-^32P]ATP). The reaction was stopped at 30, 60, 120, and 180 minutes by addition of Laemmli sampling buffer. Samples were then subjected to SDS-PAGE and autoradiography.
An assay was conducted to identify promoters and inhibitors of BDTK activity. BDTK peptides may be used to inhibit BDTK activity. Two synthetic peptides (N21: […] (SEQ ID NO:21) and AA21: […]) (SEQ ID NO:22) are synthesized to test if N21 and A21, where conserved two glycine residues are substituted with alanine, has inhibitory effect of BDTK kinase activity in vitro. Increasing amounts of peptides (0-1 mM) were tested for BDTK and tau phosphorylation, in vitro. […] AA21 mutated peptide increased both BDTK (AA21-BDTK, from 30 to 300 μM) and tau phosphorylation (AA21-tau, from 30 μM to […]) in dose response manner.

Sequence of GSK-3beta (P49841 whole entry, species assumed): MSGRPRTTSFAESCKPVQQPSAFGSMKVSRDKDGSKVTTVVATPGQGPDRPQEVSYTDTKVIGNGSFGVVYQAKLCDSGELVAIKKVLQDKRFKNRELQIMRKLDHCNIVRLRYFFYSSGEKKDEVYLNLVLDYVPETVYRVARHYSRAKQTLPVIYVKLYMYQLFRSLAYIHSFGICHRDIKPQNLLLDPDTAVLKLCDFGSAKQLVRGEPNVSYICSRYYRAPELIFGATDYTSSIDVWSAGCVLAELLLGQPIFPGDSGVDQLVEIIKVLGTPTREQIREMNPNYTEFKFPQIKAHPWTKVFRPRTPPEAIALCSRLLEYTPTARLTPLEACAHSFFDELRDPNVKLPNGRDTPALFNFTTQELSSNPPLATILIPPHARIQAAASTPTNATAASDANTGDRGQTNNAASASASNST
Sequence of CDK-5 (Q00535 whole entry, species assumed): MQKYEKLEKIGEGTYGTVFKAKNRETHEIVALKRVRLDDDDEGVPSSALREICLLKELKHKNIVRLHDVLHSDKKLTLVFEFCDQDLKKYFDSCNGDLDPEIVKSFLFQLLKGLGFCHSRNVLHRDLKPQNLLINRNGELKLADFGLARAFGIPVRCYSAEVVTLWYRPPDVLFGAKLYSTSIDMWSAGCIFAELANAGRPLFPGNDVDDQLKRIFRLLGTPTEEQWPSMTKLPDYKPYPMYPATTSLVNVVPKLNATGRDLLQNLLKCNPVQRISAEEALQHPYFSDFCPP
Sequence of CDK-5 (Q15078 whole entry partner, species assumed): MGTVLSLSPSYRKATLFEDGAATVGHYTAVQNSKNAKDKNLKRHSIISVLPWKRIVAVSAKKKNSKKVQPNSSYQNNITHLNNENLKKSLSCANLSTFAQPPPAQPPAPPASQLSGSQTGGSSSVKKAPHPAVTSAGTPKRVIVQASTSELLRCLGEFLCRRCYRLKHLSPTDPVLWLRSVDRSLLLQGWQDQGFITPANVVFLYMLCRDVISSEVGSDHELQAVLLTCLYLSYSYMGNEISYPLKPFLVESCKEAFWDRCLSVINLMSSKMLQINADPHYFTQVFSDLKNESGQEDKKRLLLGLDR

## CC(C)[C@H](CO)Nc1nc(Nc2cccc(Cl)c2)c2ncn(C(C)C)c2n1 [puralanol A]
GSK-3beta
  IC50: 13 µM
CDK-5
  IC50: 0.075 µM

## Beta-amyloid: extracellular beta-amyloid peptide (A-beta) 1-42
[1]
  effect on CpG1.2-luciferase activity: weakly stimulated

## KDRWKVVKKIGGGGFGEIYEA [N21]
BDTK [2]; peptide from 300 μM to 1 μM
  effect on tau phosphorylation (N21-tau): partially inhibited
BDTK [3]; peptide 100 μM-1 mM
  inhibition of BDTK phosphorylation: up to 70%

## KDRWKVWKKIAGAGFGEIYEA [AA21]
BDTK [2]; peptide from 30 μM to 1 μM, dose response manner
  effect on tau phosphorylation (AA21-tau): increased
BDTK [3]; peptide from 30 to 300 μM, dose response manner
  effect on BDTK phosphorylation (AA21-BDTK): increased
